From patent publication US20230340155A1 (published 2023)

Experiments:
cyno PD-1 (SPR analyte) = biological target: T1, cyno PD-1 (SPR analyte) (cynomolgus monkey); test: SPR, ProteOn XPR36, mAb captured by anti-human IgG Fc, cyno PD-1 as analyte, 25 C
T1 construct: Construct of the soluble analyte is not described; also called cynomolgus PD-1
Description: Affinity measurements were performed using a ProteOn XPR36 system (BioRad). […] Approximately 5000 RU (response units) of mAbs were immobilized. The kinetic experiments were performed at 25° C. in running buffer (DPBS+0.01% P20+100 µg/mL BSA). To perform kinetic experiments, 200 RU of mAbs were captured followed by injections of analytes (human and cyno PD-1) at concentrations ranging from 1.563 nM to 400 nM (in a 4-fold serial dilution). The association phase was monitored for 3 minutes at 50 µL/min, then followed by 10 or 15 minutes of buffer flow (dissociation phase). The chip surface was regenerated with two 18 second pulses of 100 mM H₃PO₄ (Sigma, Cat#7961) at 100 µL/min.
The collected data were processed using ProteOn Manager software. First, the data was corrected for background using inter-spots. Then, double reference subtraction of the data was performed by using the buffer injection for analyte injections. The kinetic analysis of the data was performed using a Langmuir 1:1 binding model. The result for each mAb was reported in the format of ka (On-rate), kd (Off-rate) and KD (equilibrium dissociation constant).
Affinity of the antibodies to human and cyno PD-1 was measured using SPR as described in Example 1.

[1] = biological target: T2, biotinylated Human PD-1/PDCD1 (Acro Biosystems, Cat# PD1-H82E4) (human, UniProt Q15116 25-167, biotinylated); test: Fab ELISA, Fab captured by anti-Fd(CH1) antibody, 5 nM biotinylated human PD-1, streptavidin-HRP chemiluminescence
T2 construct: Bought reagent; whole mature entry named
Description: For follow-up screening, plasmid DNA was prepared from overnight culture of the TG-1 Escherichia coli cells and the pIX gene was excised by NheI/SpeI digestion. After ligation, the DNA was transformed into TG-1 cells and grown on LB/Agar plates overnight. The next day, colonies were picked, grown overnight, and the cultures used for (i) colony sequencing of the V- regions, and (ii) induction of Fab production. For Fab production, the overnight culture was diluted 100 folds in new media and grown for 5-6 hours at 37° C. Fab production was induced by the addition of fresh media containing IPTG and the cultures were grown overnight at 30° C. The following day, the cultures were spun down and the supernatants, containing the soluble Fab proteins, were used for Fab ELISA. For the ELISA, the soluble Fab proteins were captured onto plates by a polyclonal anti-Fd(CH1) antibody. After washing and blocking, biotinylated Human PD-1/PDCD1 was added at 5 nM concentration. […] The biotinylated human PD-1 was detected by HRP-conjugated streptavidin with chemiluminescence measured in a plate reader.

T2 sequence (Q15116 25-167 limits assumed): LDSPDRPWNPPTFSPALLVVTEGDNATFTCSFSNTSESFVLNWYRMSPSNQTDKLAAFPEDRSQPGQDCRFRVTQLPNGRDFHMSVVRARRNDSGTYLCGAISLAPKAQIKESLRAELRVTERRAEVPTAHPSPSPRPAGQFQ

Binder | Kd (cyno PD-1 (SPR analyte)) | koff (cyno PD-1 (SPR analyte)) | kon (cyno PD-1 (SPR analyte)) | fold change in ELISA binding versus the parental Fab [1]
PD1B1085 (antibody, human IgG1, kappa, V domains shown, IgG1; also called PD1H585/PD1L469; E57Y (VH) variant of PD1B878) VH: QVQLVQSGSELKKPGASVKVSCKASGYTFTDYSMHWVRQAPGQGLEWMGWINIETGYPTYAQGFTGRFVFSLDTSVSTAYLQISSLKAEDTAVYFCARDYYGTYFYAMDYWGQGTLVTVSS VL: EIVLTQSPATLSLSPGERATLSCTASSSVSSSYLHWYQQKPGLAPRLLIYSTSNLASGIPDRFSGSGSGTDYTLTISRLEPEDFAVYYCHQYHRSPLTFGQGTKLEIKR | 6.45 nM | 0.00129 s⁻¹ | 200000 M⁻¹ s⁻¹ | –
PD1B878 Fab variant with heavy chain PD1H585 (E57Y) (Fab, V domains shown, Soluble Fab of the non-combinatorial CDR scan) VH: QVQLVQSGSELKKPGASVKVSCKASGYTFTDYSMHWVRQAPGQGLEWMGWINIETGYPTYAQGFTGRFVFSLDTSVSTAYLQISSLKAEDTAVYFCARDYYGTYFYAMDYWGQGTLVTVSS VL: EIVLTQSPATLSLSPGERATLSCTASSSVSSSYLHWYQQKPGLAPRLLIYSTSNLASGIPDRFSGSGSGTDYTLTISRLEPEDFAVYYCHQYHRSPLTFGQGTKLEIK | – | – | – | 10 fold
PD1B1091 (antibody, human IgG1, kappa, V domains shown, IgG1; also called PD1H586/PD1L651; E57H (VH), V29F (VL) variant of PD1B878) VH: QVQLVQSGSELKKPGASVKVSCKASGYTFTDYSMHWVRQAPGQGLEWMGWINIETGHPTYAQGFTGRFVFSLDTSVSTAYLQISSLKAEDTAVYFCARDYYGTYFYAMDYWGQGTLVTVSS VL: EIVLTQSPATLSLSPGERATLSCTASSSFSSSYLHWYQQKPGLAPRLLIYSTSNLASGIPDRFSGSGSGTDYTLTISRLEPEDFAVYYCHQYHRSPLTFGQGTKLEIKR | 9.32 nM | 0.000924 s⁻¹ | 99100 M⁻¹ s⁻¹ | –
PD1B878 Fab variant with heavy chain PD1H587 (E57W) (Fab, V domains shown, Soluble Fab of the non-combinatorial CDR scan) VH: QVQLVQSGSELKKPGASVKVSCKASGYTFTDYSMHWVRQAPGQGLEWMGWINIETGWPTYAQGFTGRFVFSLDTSVSTAYLQISSLKAEDTAVYFCARDYYGTYFYAMDYWGQGTLVTVSS VL: EIVLTQSPATLSLSPGERATLSCTASSSVSSSYLHWYQQKPGLAPRLLIYSTSNLASGIPDRFSGSGSGTDYTLTISRLEPEDFAVYYCHQYHRSPLTFGQGTKLEIK | – | – | – | 10 fold
PD1B1090 (antibody, human IgG1, kappa, V domains shown, IgG1; also called PD1H585/PD1L651; E57Y (VH), V29F (VL) variant of PD1B878) VH: QVQLVQSGSELKKPGASVKVSCKASGYTFTDYSMHWVRQAPGQGLEWMGWINIETGYPTYAQGFTGRFVFSLDTSVSTAYLQISSLKAEDTAVYFCARDYYGTYFYAMDYWGQGTLVTVSS VL: EIVLTQSPATLSLSPGERATLSCTASSSFSSSYLHWYQQKPGLAPRLLIYSTSNLASGIPDRFSGSGSGTDYTLTISRLEPEDFAVYYCHQYHRSPLTFGQGTKLEIKR | 1.43 nM | 0.000185 s⁻¹ | 130000 M⁻¹ s⁻¹ | –
PD1B1094 (antibody, human IgG1, kappa, V domains shown, IgG1; also called PD1H586/PD1L652; E57H (VH), S30P (VL) variant of PD1B878) VH: QVQLVQSGSELKKPGASVKVSCKASGYTFTDYSMHWVRQAPGQGLEWMGWINIETGHPTYAQGFTGRFVFSLDTSVSTAYLQISSLKAEDTAVYFCARDYYGTYFYAMDYWGQGTLVTVSS VL: EIVLTQSPATLSLSPGERATLSCTASSSVPSSYLHWYQQKPGLAPRLLIYSTSNLASGIPDRFSGSGSGTDYTLTISRLEPEDFAVYYCHQYHRSPLTFGQGTKLEIKR | 12 nM | 0.00162 s⁻¹ | 135000 M⁻¹ s⁻¹ | –
PD1B878 Fab variant with light chain PD1L651 (V29F) (Fab, V domains shown, Soluble Fab of the non-combinatorial CDR scan) VH: QVQLVQSGSELKKPGASVKVSCKASGYTFTDYSMHWVRQAPGQGLEWMGWINIETGEPTYAQGFTGRFVFSLDTSVSTAYLQISSLKAEDTAVYFCARDYYGTYFYAMDYWGQGTLVTVSS VL: EIVLTQSPATLSLSPGERATLSCTASSSFSSSYLHWYQQKPGLAPRLLIYSTSNLASGIPDRFSGSGSGTDYTLTISRLEPEDFAVYYCHQYHRSPLTFGQGTKLEIK | – | – | – | 10 fold
PD1B878 Fab variant with light chain PD1L652 (S30P) (Fab, V domains shown, Soluble Fab of the non-combinatorial CDR scan) VH: QVQLVQSGSELKKPGASVKVSCKASGYTFTDYSMHWVRQAPGQGLEWMGWINIETGEPTYAQGFTGRFVFSLDTSVSTAYLQISSLKAEDTAVYFCARDYYGTYFYAMDYWGQGTLVTVSS VL: EIVLTQSPATLSLSPGERATLSCTASSSVPSSYLHWYQQKPGLAPRLLIYSTSNLASGIPDRFSGSGSGTDYTLTISRLEPEDFAVYYCHQYHRSPLTFGQGTKLEIK | – | – | – | 10 fold
